Data set [1] concerns the target rhC5a (human (printed as rhC5a)) (UniProt P01031). Nature of the data set: cell-based or functional assay.
The target in data set [2] is T1, rhC5a, P01031.
T1 chain: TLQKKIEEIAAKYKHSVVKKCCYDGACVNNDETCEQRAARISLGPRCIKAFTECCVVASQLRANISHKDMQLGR

“SCPA49, streptococcal C5a peptidase of group A Streptococcus serotype M49 strain CS101, as made by the bacteria (from UniProt P58099 2-1181) (enzyme)” displayed a Percent inhibition of C5a induced PMN adherence in data set [1] of 54.5%. On the same count and under the same terms, as for “SCPA6, streptococcal C5a peptidase of group A Streptococcus serotype M6 strain UAB200, as made by the bacteria (enzyme)”, the figure is 58.8%.

B1: recombinant wild-type SCPA49 (Asn32 through His1139) (protein)
chain: NTVTEDTPATEQAVETPQPTTVSEEVPSSKETKTPQTPDDAEETVADDANDLAPQAPAKTPDTSATSKATIRDLNDPSQVKTLQEKAGKGAGTVVAVIDAGFDKNHEAWRLTDKAKARYQSKEDLEKAKKEHGITYGEWVNDKVAYYHDYSKDGKTAVDQEHGTHVSGILSGNAPSETKEPYRLEGAMPEAQLLLMRVEIVNGLADYARNYAQAIRDAVNLGAKVINMSFGNAALAYANLPDETKKPFVYAKSKGVRIVTTAGNDSSFGGKTRLPLADHPDYGVVGTPAAADSTLTVASYSPDNQLTETAMVKTDDQQDKEMPVLSTNRFEPNKAYDYAYANRGMKEDDFKDVKGKIALIERSDIDFTDKIANAKKAGAVGVLIYDNQDKGFPIELPNVDQMPAAFISRKDGLLLKDNSQKTITFNATPKVLPTASGTKLSRFSSWGLTADGNIKPDIAAPGQDILSSAANNKYAKLSGTSMSAPLVAVIMGLLQKQYETQYPDMTQSERLDLAKKVLMSSATALYDEDEKAYFSPRQQGAGAVDAKKASEATMYVTDKDNTSSKVHLNNVSDKFEVTVTVHNKSDKPHELYYQATVQTDKVDGKHFALAPKALIETSWQKITIPANSSKQVTIPIDISQFSKDLLAQMKNGYFLEGFVRIKQDPTKEELMSIPYIGFRGDFGNLSALEKPLYDSKDGSSYYHEEISDAKDQLDGDGLQFYALKNDFTALTTESNPWTIINVVKEGVENIEDIESSEITETIFAGTFAKQDDDRHYYIHRHANGKPYAAISPNGDGNRDYVQFHGTFLRNAKNLVAEVLDKEGNVVWTSEVTEQVVKNYNNDLASTLGSTRFEISRWDGKDKDAKVVANGTYTYRVRYTPISSGAKEQHTDFDVIVDNTTPEVATSATFSTEDRRLTLASKPQTSQPVYRERIAYTYMDEDLPTTEYISPNEDGTFTLPEEAETMEGATVPLKMSDFTYVVEDMAGNITYTPVTKLLEGHSNKPEQDGSDQAPDKKPETKPEQDGSDQAPDKKPETKPGQDGSGQTPDKKPETKPEKDSSGQTPGKTPQKGQPSRTLEKRSSKRALATKASTRDQLPTTNDKDTNRLH
For the molecule B1, the Activity (U/mg*10^-3), PMN adherence assay in data set [2] was determined as 170 U/mg·10^-3.

B2: SCPA49N295A (protein)
chain: NTVTEDTPATEQAVETPQPTTVSEEVPSSKETKTPQTPDDAEETVADDANDLAPQAPAKTPDTSATSKATIRDLNDPSQVKTLQEKAGKGAGTVVAVIDAGFDKNHEAWRLTDKAKARYQSKEDLEKAKKEHGITYGEWVNDKVAYYHDYSKDGKTAVDQEHGTHVSGILSGNAPSETKEPYRLEGAMPEAQLLLMRVEIVNGLADYARNYAQAIRDAVNLGAKVINMSFGNAALAYANLPDETKKPFVYAKSKGVRIVTTAGADSSFGGKTRLPLADHPDYGVVGTPAAADSTLTVASYSPDNQLTETAMVKTDDQQDKEMPVLSTNRFEPNKAYDYAYANRGMKEDDFKDVKGKIALIERSDIDFTDKIANAKKAGAVGVLIYDNQDKGFPIELPNVDQMPAAFISRKDGLLLKDNSQKTITFNATPKVLPTASGTKLSRFSSWGLTADGNIKPDIAAPGQDILSSAANNKYAKLSGTSMSAPLVAVIMGLLQKQYETQYPDMTQSERLDLAKKVLMSSATALYDEDEKAYFSPRQQGAGAVDAKKASEATMYVTDKDNTSSKVHLNNVSDKFEVTVTVHNKSDKPHELYYQATVQTDKVDGKHFALAPKALIETSWQKITIPANSSKQVTIPIDISQFSKDLLAQMKNGYFLEGFVRIKQDPTKEELMSIPYIGFRGDFGNLSALEKPLYDSKDGSSYYHEEISDAKDQLDGDGLQFYALKNDFTALTTESNPWTIINVVKEGVENIEDIESSEITETIFAGTFAKQDDDRHYYIHRHANGKPYAAISPNGDGNRDYVQFHGTFLRNAKNLVAEVLDKEGNVVWTSEVTEQVVKNYNNDLASTLGSTRFEISRWDGKDKDAKVVANGTYTYRVRYTPISSGAKEQHTDFDVIVDNTTPEVATSATFSTEDRRLTLASKPQTSQPVYRERIAYTYMDEDLPTTEYISPNEDGTFTLPEEAETMEGATVPLKMSDFTYVVEDMAGNITYTPVTKLLEGHSNKPEQDGSDQAPDKKPETKPEQDGSDQAPDKKPETKPGQDGSGQTPDKKPETKPEKDSSGQTPGKTPQKGQPSRTLEKRSSKRALATKASTRDQLPTTNDKDTNRLH
The molecule B2 came in with an Activity (U/mg*10^-3), PMN adherence assay in data set [2] of less than 20 U/mg·10^-3.

B3: SCPA49D130A (protein)
chain: NTVTEDTPATEQAVETPQPTTVSEEVPSSKETKTPQTPDDAEETVADDANDLAPQAPAKTPDTSATSKATIRDLNDPSQVKTLQEKAGKGAGTVVAVIAAGFDKNHEAWRLTDKAKARYQSKEDLEKAKKEHGITYGEWVNDKVAYYHDYSKDGKTAVDQEHGTHVSGILSGNAPSETKEPYRLEGAMPEAQLLLMRVEIVNGLADYARNYAQAIRDAVNLGAKVINMSFGNAALAYANLPDETKKPFVYAKSKGVRIVTTAGNDSSFGGKTRLPLADHPDYGVVGTPAAADSTLTVASYSPDNQLTETAMVKTDDQQDKEMPVLSTNRFEPNKAYDYAYANRGMKEDDFKDVKGKIALIERSDIDFTDKIANAKKAGAVGVLIYDNQDKGFPIELPNVDQMPAAFISRKDGLLLKDNSQKTITFNATPKVLPTASGTKLSRFSSWGLTADGNIKPDIAAPGQDILSSAANNKYAKLSGTSMSAPLVAVIMGLLQKQYETQYPDMTQSERLDLAKKVLMSSATALYDEDEKAYFSPRQQGAGAVDAKKASEATMYVTDKDNTSSKVHLNNVSDKFEVTVTVHNKSDKPHELYYQATVQTDKVDGKHFALAPKALIETSWQKITIPANSSKQVTIPIDISQFSKDLLAQMKNGYFLEGFVRIKQDPTKEELMSIPYIGFRGDFGNLSALEKPLYDSKDGSSYYHEEISDAKDQLDGDGLQFYALKNDFTALTTESNPWTIINVVKEGVENIEDIESSEITETIFAGTFAKQDDDRHYYIHRHANGKPYAAISPNGDGNRDYVQFHGTFLRNAKNLVAEVLDKEGNVVWTSEVTEQVVKNYNNDLASTLGSTRFEISRWDGKDKDAKVVANGTYTYRVRYTPISSGAKEQHTDFDVIVDNTTPEVATSATFSTEDRRLTLASKPQTSQPVYRERIAYTYMDEDLPTTEYISPNEDGTFTLPEEAETMEGATVPLKMSDFTYVVEDMAGNITYTPVTKLLEGHSNKPEQDGSDQAPDKKPETKPEQDGSDQAPDKKPETKPGQDGSGQTPDKKPETKPEKDSSGQTPGKTPQKGQPSRTLEKRSSKRALATKASTRDQLPTTNDKDTNRLH
For the molecule B3, the Activity (U/mg*10^-3), PMN adherence assay in data set [2] was less than 20 U/mg·10^-3.

B4: SCPA49S512A (protein)
chain: NTVTEDTPATEQAVETPQPTTVSEEVPSSKETKTPQTPDDAEETVADDANDLAPQAPAKTPDTSATSKATIRDLNDPSQVKTLQEKAGKGAGTVVAVIDAGFDKNHEAWRLTDKAKARYQSKEDLEKAKKEHGITYGEWVNDKVAYYHDYSKDGKTAVDQEHGTHVSGILSGNAPSETKEPYRLEGAMPEAQLLLMRVEIVNGLADYARNYAQAIRDAVNLGAKVINMSFGNAALAYANLPDETKKPFVYAKSKGVRIVTTAGNDSSFGGKTRLPLADHPDYGVVGTPAAADSTLTVASYSPDNQLTETAMVKTDDQQDKEMPVLSTNRFEPNKAYDYAYANRGMKEDDFKDVKGKIALIERSDIDFTDKIANAKKAGAVGVLIYDNQDKGFPIELPNVDQMPAAFISRKDGLLLKDNSQKTITFNATPKVLPTASGTKLSRFSSWGLTADGNIKPDIAAPGQDILSSAANNKYAKLSGTAMSAPLVAVIMGLLQKQYETQYPDMTQSERLDLAKKVLMSSATALYDEDEKAYFSPRQQGAGAVDAKKASEATMYVTDKDNTSSKVHLNNVSDKFEVTVTVHNKSDKPHELYYQATVQTDKVDGKHFALAPKALIETSWQKITIPANSSKQVTIPIDISQFSKDLLAQMKNGYFLEGFVRIKQDPTKEELMSIPYIGFRGDFGNLSALEKPLYDSKDGSSYYHEEISDAKDQLDGDGLQFYALKNDFTALTTESNPWTIINVVKEGVENIEDIESSEITETIFAGTFAKQDDDRHYYIHRHANGKPYAAISPNGDGNRDYVQFHGTFLRNAKNLVAEVLDKEGNVVWTSEVTEQVVKNYNNDLASTLGSTRFEISRWDGKDKDAKVVANGTYTYRVRYTPISSGAKEQHTDFDVIVDNTTPEVATSATFSTEDRRLTLASKPQTSQPVYRERIAYTYMDEDLPTTEYISPNEDGTFTLPEEAETMEGATVPLKMSDFTYVVEDMAGNITYTPVTKLLEGHSNKPEQDGSDQAPDKKPETKPEQDGSDQAPDKKPETKPGQDGSGQTPDKKPETKPEKDSSGQTPGKTPQKGQPSRTLEKRSSKRALATKASTRDQLPTTNDKDTNRLH
Turning to B4, the Activity (U/mg*10^-3), PMN adherence assay in data set [2] is less than 20 U/mg·10^-3.

B5: ΔSCPA49 (truncated recombinant SCPA49, Thr63 through His1031) (protein)
chain: TKTPQTPDDAEETVADDANDLAPQAPAKTPDTSATSKATIRDLNDPSQVKTLQEKAGKGAGTVVAVIDAGFDKNHEAWRLTDKAKARYQSKEDLEKAKKEHGITYGEWVNDKVAYYHDYSKDGKTAVDQEHGTHVSGILSGNAPSETKEPYRLEGAMPEAQLLLMRVEIVNGLADYARNYAQAIRDAVNLGAKVINMSFGNAALAYANLPDETKKPFVYAKSKGVRIVTTAGNDSSFGGKTRLPLADHPDYGVVGTPAAADSTLTVASYSPDNQLTETAMVKTDDQQDKEMPVLSTNRFEPNKAYDYAYANRGMKEDDFKDVKGKIALIERSDIDFTDKIANAKKAGAVGVLIYDNQDKGFPIELPNVDQMPAAFISRKDGLLLKDNSQKTITFNATPKVLPTASGTKLSRFSSWGLTADGNIKPDIAAPGQDILSSAANNKYAKLSGTSMSAPLVAVIMGLLQKQYETQYPDMTQSERLDLAKKVLMSSATALYDEDEKAYFSPRQQGAGAVDAKKASEATMYVTDKDNTSSKVHLNNVSDKFEVTVTVHNKSDKPHELYYQATVQTDKVDGKHFALAPKALIETSWQKITIPANSSKQVTIPIDISQFSKDLLAQMKNGYFLEGFVRIKQDPTKEELMSIPYIGFRGDFGNLSALEKPLYDSKDGSSYYHEEISDAKDQLDGDGLQFYALKNDFTALTTESNPWTIINVVKEGVENIEDIESSEITETIFAGTFAKQDDDRHYYIHRHANGKPYAAISPNGDGNRDYVQFHGTFLRNAKNLVAEVLDKEGNVVWTSEVTEQVVKNYNNDLASTLGSTRFEISRWDGKDKDAKVVANGTYTYRVRYTPISSGAKEQHTDFDVIVDNTTPEVATSATFSTEDRRLTLASKPQTSQPVYRERIAYTYMDEDLPTTEYISPNEDGTFTLPEEAETMEGATVPLKMSDFTYVVEDMAGNITYTPVTKLLEGH
Turning to B5, in data set [2], the “peptidase activity, PMN adherence assay” value is given as “lacked peptidase activity”.

The record behind these values is patent US20020142009A1.
